Source: US20220386594A1 (IBI AG INNOVATIVE BIO INSECTICIDES, published 2022)

Experiments:
Assay in all cases: ELISA, plate coated with 10 ug/ml target protein, 2 ug/ml nanobody, anti-VHH-HRP, A450
[1] = biological target: T1, Helicoverpa armigera chitin synthase (Helicoverpa armigera)
T1 construct: the tag is not part of the printed entry; also called CHS; target CHS antigen
T1 chain: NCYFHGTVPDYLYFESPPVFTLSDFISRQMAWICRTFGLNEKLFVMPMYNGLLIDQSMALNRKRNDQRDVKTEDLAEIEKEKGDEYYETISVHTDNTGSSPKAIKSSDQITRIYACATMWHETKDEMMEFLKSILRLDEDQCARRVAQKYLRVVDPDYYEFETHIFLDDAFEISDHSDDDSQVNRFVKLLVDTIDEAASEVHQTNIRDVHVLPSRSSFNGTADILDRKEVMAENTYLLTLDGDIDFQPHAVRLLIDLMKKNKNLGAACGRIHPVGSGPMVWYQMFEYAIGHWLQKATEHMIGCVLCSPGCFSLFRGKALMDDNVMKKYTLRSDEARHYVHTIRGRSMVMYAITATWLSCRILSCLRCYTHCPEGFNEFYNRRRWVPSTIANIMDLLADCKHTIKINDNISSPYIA

[2] = biological target: T2, Helicoverpa armigera trehalase (Helicoverpa armigera)
T2 construct: the tag is not part of the printed entry; also called TRH; target TRH antigen
T2 chain: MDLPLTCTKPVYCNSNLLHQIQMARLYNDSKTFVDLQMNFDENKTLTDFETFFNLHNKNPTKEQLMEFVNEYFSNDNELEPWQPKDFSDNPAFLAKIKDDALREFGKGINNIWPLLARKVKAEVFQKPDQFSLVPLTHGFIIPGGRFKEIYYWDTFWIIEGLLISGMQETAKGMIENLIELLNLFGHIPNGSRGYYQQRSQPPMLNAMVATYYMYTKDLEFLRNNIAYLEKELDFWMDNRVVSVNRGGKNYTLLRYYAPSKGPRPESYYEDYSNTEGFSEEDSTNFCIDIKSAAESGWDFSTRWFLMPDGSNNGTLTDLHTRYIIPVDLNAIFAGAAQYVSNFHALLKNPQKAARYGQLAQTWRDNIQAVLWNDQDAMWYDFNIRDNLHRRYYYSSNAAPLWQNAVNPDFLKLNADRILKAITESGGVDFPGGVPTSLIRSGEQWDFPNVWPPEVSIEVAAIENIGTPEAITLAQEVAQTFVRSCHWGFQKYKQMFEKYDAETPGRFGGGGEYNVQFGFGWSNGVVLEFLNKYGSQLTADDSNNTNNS

[3] = biological target: T3, Helicoverpa armigera NPC1 sterol transporter (Helicoverpa armigera)
T3 construct: the tag is not part of the printed entry; also called target NPC antigen; target NPC1 antigen
T3 chain: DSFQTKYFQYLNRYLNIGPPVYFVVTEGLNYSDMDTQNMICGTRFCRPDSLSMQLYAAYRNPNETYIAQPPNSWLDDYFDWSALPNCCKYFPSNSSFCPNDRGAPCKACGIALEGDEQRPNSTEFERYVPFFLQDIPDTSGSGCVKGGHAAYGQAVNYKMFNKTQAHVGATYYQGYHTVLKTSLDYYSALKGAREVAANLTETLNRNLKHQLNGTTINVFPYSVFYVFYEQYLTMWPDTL

[4] = biological target: T4, Helicoverpa armigera V-ATPase subunit c (Helicoverpa armigera)
T4 construct: also called V-ATPases Subunit C; ATPase V subunit c
T4 chain: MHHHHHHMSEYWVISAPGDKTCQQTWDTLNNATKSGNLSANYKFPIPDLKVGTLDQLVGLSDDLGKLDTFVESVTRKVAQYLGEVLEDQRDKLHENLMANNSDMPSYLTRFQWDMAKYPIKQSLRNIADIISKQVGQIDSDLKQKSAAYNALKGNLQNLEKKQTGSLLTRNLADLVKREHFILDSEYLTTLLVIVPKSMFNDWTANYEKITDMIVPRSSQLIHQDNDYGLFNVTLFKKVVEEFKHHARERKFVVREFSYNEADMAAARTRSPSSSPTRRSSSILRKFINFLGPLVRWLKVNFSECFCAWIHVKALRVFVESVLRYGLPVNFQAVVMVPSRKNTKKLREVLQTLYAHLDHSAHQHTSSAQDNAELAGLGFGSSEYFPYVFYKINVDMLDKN

B1: CHS01A (VHH)
VHH: QVQLQESGGGLVQAGGSLRLSCSASTSIASINAVGWYRQAPGKQRELVAVIVNGSTTRYADSVKGRFTISGDNAENTVPLLMSSLKPEDTAIYYCGARDLSGTYWGQGTQVTVSS
notes: Llama nanobody, His-tagged, expressed in E. coli SHuffle T7; also called CHS1a; anti-CHS nanobody CHS01A
B1: binds [1].

B2: CHS24 (VHH)
VHH: QVQLQESGGGWVQPGGSLRLSCTISGLSRYYAMGWFRQVPGKERESVATISLRGGRTYYADSVEGRFTISRDNAKNTMYLQMNSLKPEDTAVYYCVADTTWGAPRSRYHYWGQGTQVTVSS
notes: Llama nanobody, His-tagged, expressed in E. coli SHuffle T7; also called anti-CHS nanobody CHS24
B2: binds [1].

B3: CHS13 (VHH)
VHH: QVQLQESGGGLVQAGGSLRLSCTVSGGTFTTYTMAWFRQAPGKEREFVAQISWSGGITAYLDSVKGRFTISRDNAKNTVYLQMNSLKPEDTAVYYCARRGRKYEDDYWGQGTQVTVSS
notes: Llama nanobody, His-tagged, expressed in E. coli SHuffle T7; also called anti-CHS nanobody CHS13
B3: binds [1].

B4: TRH1A (VHH)
VHH: QVQLQESGGGLVQAGGSLRLSCATSGRAFTNYHMGWFRQTPGKEREFVALISWSGDSTRYADSVKGRFTISRDNAKRTVALQMDSLKPEDSAVYYCASRLVGQSQYEVWGQGTQVTVSS
notes: Llama nanobody, His-tagged, expressed in E. coli SHuffle T7; also called anti-TRH nanobody TRH1A
B4: binds [2].

B5: TRH14 (VHH)
VHH: QVQLQESGGGLVQAGDSLRLSCAASGRPFSSYTMGWFRQAPGKEREFVAAISWSGGTTYYTDSVQGRFTISRDNAKNTVYLQMNRLKPEDTAVYYCATDVGRIYGGGSLYSSAFSYDYWGQGTQVTVSS
notes: Llama nanobody, His-tagged, expressed in E. coli SHuffle T7; also called anti-TRH nanobody TRH14
B5: binds [2].

B6: CHS22 (VHH)
VHH: QVQLQESGGGLVQAGGSLRLSCAASGGTFSGLTMGWFRQAPGKERDFVAAISWNGRFTYYKDSVKGRFAISRDNAKSTVYLQMTSLKPEDTAVYYCGADVLSGRGYRYWGQGTQVTVSS
notes: Llama nanobody, His-tagged, expressed in E. coli SHuffle T7; also called anti-CHS nanobody CHS22
B6: binds [1].

B7: NPC01C01 (VHH)
VHH: QVQLQESGGGLVQVGGSLRISCVASGRTGSYYAMGWFRQAPGKEREFVAAISWNGGMTDYADFVKGRFAISRDNAKTVSLQMNNLKPEDTALYYCTAGPARRSYSYRDGYDYWGQGTQVTVSS
notes: Llama nanobody, His-tagged, expressed in E. coli SHuffle T7; also called NPC1c; anti-NPC nanobody NPC01C01
B7: binds [3].

B8: VAT0101B (VHH)
VHH: QVQLQESGGGLVQAGGSLRLSCAASGSTLSGYIMSWFRQPPGKERELVAAITYVGSTYVEDSVKGRFTISRDNAKNTVSLQMNSLKPEDTAVYYCRAREGEQLDFWGQGTQVTVSS
notes: Llama nanobody, His-tagged, expressed in E. coli SHuffle T7; also called anti-VAT nanobody VAT0101B
B8: binds [4].

B9: VAT0101D (VHH)
VHH: QVQLQESGGGLVQPGGSLRLSCVASGSTFSGYIMSWFRQPPGKERELVAAITYVGSTYVEDSVKGRFTISRDNAKNTVSLQMNSLKPEDTAVYYCRAREGEQLDFWGQGTQVTVSS
notes: Llama nanobody, His-tagged, expressed in E. coli SHuffle T7; also called anti-VAT nanobody VAT0101D
B9: binds [4].

B10: VAT0101C (VHH)
VHH: QVQLQESGGGLVQSGDSLRLSCAASGSTFSGYIMSWFRQPPGKERELVAAITYVGSTYVEDSVKGRFTISRDNAKNTVSLQMNSLKPEDTAVYYCRAREGEQLDFWGQGTQVTVSS
notes: Llama nanobody, His-tagged, expressed in E. coli SHuffle T7; also called anti-VAT nanobody VAT0101C
B10: binds [4].

B11: VAT0101F (VHH)
VHH: QVQLQESGGGTVQAGGSLRLSCAASGSTFSGYIMSWFRQPPGKERELVAAITYVGSTYVEDSVKGRFTISRDNAKNTVSLQMNSLKPEDTAVYYCRAREGEQLDFWGQGTQVTVSS
notes: Llama nanobody, His-tagged, expressed in E. coli SHuffle T7; also called anti-VAT nanobody VAT0101F
B11: binds [4].

B12: VAT0101E (VHH)
VHH: QVQLQESGGGLVQAGDSLRLSCAASGSTFSGYIMSWFRQPPGKERELVAAITYVGSTYVEDSVKGRFTISRDNAKNTVSLQMNSLKPEDTAVYYCRAREGEQLDFWGQGTQVTVSS
notes: Llama nanobody, His-tagged, expressed in E. coli SHuffle T7; also called anti-VAT nanobody VAT0101E
B12: binds [4].

B13: VAT0101G (VHH)
VHH: QVQLQESGGGLVQAGGSLRLSCAASGSTFSGYIMSWFRQPPGKERELVAAITYVGSTWYQDSVKGRFTISRDNAKNTVSLQMNSLKPEDTAVYYCRAREGEQLDFWGQGTQVTVSS
notes: Llama nanobody, His-tagged, expressed in E. coli SHuffle T7; also called VATO101G; anti-VAT nanobody VAT0101G
B13: binds [4].

B14: CHS18 (VHH)
VHH: QVQLQESGGGLVQAGGSLRLSCTASGRTFSSYSMAWFRQASGKEREIVAAVSRFGKFKYYADSVKGRFTISRDNAKNTLYLQMNSLKPEDTAVYYCAKTDGSSWYLDYWGQGTQVTVSS
notes: Llama nanobody, His-tagged, expressed in E. coli SHuffle T7; also called anti-CHS nanobody CHS18
B14: binds [1].

B15: TRH13 (VHH)
VHH: QVQLQESGGGLVQAGGSLRLTCAATVRIFSSYTMGWFRQSPGKEREFVGAITWSGGNTYYADSVKGRFTISRDNAKNTVYLQMNSLKSEDTAVYYCAADPGRSYVLSRYYDQASYDYWGQGTQVTVSS
notes: Llama nanobody, His-tagged, expressed in E. coli SHuffle T7; also called anti-TRH nanobody TRH13
B15: binds [2].

B16: CHS02A (VHH)
VHH: QVQLQESGGGLVQAGGSLRLSCAASRGTFSRYVMGWFRQGPGKEREFVAGISWSGISTYYADFVKGRFTISRDNAKNTVYLQMNSLKPEDTAVYYCAADPGRGYDYWGQGTQVTVSS
notes: Llama nanobody, His-tagged, expressed in E. coli SHuffle T7; also called CHS2a; anti-CHS nanobody CHS02A
B16: binds [1].

B17: NPC07A01 (VHH)
VHH: QVQLQESGGGLVQAGDSLRISCKASGRTFSSYPIGWFRQAPGKEREFVAAISRSGGRTYYADSVKGRLTISRDNAKNTVYLQMNSLKLEDTAVYYCAAKTTMGLPVGGTYEYDYWGQGTQVTVSS
notes: Llama nanobody, His-tagged, expressed in E. coli SHuffle T7; also called NPC7a; anti-NPC nanobody NPC07A01
B17: binds [3].

B18: CHS08 (VHH)
VHH: QVQLQESGGGLVQAGSSLRLSCAASGRTFRYHAMGWFRQAPGKEREFVAGISTSGGMTYYPDSVKGRFTISRDNAKNTLYLQMNSLKPGDTAVYYCAKFHGDKGYGSSWYYDYWGQGTQVTVSS
notes: Llama nanobody, His-tagged, expressed in E. coli SHuffle T7; also called CHS8; anti-CHS nanobody CHS08
B18: binds [1].

B19: NPC0901 (VHH)
VHH: QVQLQESGGGLVQAGDSLRISCKASGRTFSNYPIGWFRQAPGKEREFVAAISRSGGGTRYADSVKGRFTISRDNAKNTVYLQMNSLKRDDTAVYYCAAYFGNLGGGVGRSSDYDYWGQGTQVTVSS
notes: Llama nanobody, His-tagged, expressed in E. coli SHuffle T7; also called NPC9; anti-NPC nanobody NPC0901
B19: binds [3].

B20: NPC04C01 (VHH)
VHH: QVQLQESGGGLVQAGGSLRLSCAASGRTFSSYVMGWFRQAPGKERELIGAINRSSTRLYYADSVKGRFSISRDNAKSTVYLQMNSLKPEDTAVYYCAADLVSILGKGYRDVDYWGQGTQVTVSS
notes: Llama nanobody, His-tagged, expressed in E. coli SHuffle T7; also called NPC4c; NPC4C
B20: binds [3].

B21: NPC04D01 (VHH)
VHH: QVQLQESGGGLVQPGGSLRVSCAASGFSFSNYVMGWFRQAPGKERELIGAINRSSTRLYYADSVKGRFSISRDNAKSTVYLQMNSLKPEDTAVYYCAADLVSILGKGYRDVDYWGQGTQVTVSS
notes: Llama nanobody, His-tagged, expressed in E. coli SHuffle T7; also called NPC4d; NPC4D
B21: binds [3].

B22: TRH12 (VHH)
VHH: QVQLQESGGGLVQAGGSLRLSCAASTSTVSDYHMGWFRQGPGKEREFVAAISWSGDSTDYADSVKARFTISRDNAKKTMSLQMNSLKPEDTAAYYCAARRVFKATWDYWGQGTQVTVSS
notes: Llama nanobody, His-tagged, expressed in E. coli SHuffle T7; also called anti-TRH nanobody TRH12
B22: binds [2].
